This data set concerns the molecule itself. Kind of data set: crystal structure; co-crystallisation by hanging-drop vapour diffusion at 20 °C; MOA variant 5 mg/ml pre-mixed with the trisaccharide Galα1,3(Fucα1,2)Gal (1:20) and the heptapeptide at 1:10 MOA:peptide molar ratio; crystals grew over 2-4 weeks.

The text below walks through data of article PMC8244254 (Current Research in Structural Biology, 2020).

B1: Marasmius oreades agglutinin (MOA) variant C215A (enzyme)
chain: MSLRRGIYHIENAGVPSAIDLKDGSSSDGTPIVGWQFTPDTINWHQLWLAEPIPNVADTFTLCNLFSGTYMDLYNGSSEAGTAVNGWQGTAFTTNPHQLWTIKKSSDGTSYKIQNYGSKTFVDLVNGDSSDGAKIAGWTGTWDEGNPHQKWYFNRMSVSSAEAQAAIARNPHIHGTYRGYILDGEYLVLPNATFTQIWKDSGLPGSKWREQIYDADDFAIAMKAAVGKWGADSWKANGFAIFCGVMLGVNKAGDAAHAYNFTLTKDHADIVFFEPQNGGYLNDIGYDSYMAFY
notes: Marasmius oreades agglutinin (MOA), from the cDNA for wild-type MOA in vector MOApT7-LO; the final model holds residues 2-293, no density for the first methionine; One protomer in the asymmetric unit; the second subunit of the dimer comes from crystal symmetry; Construct described in Cordara et al. (2011); also called MOA C215A; MOA-C215A
With B1, the binding result is given as “binds”.

B2: Marasmius oreades agglutinin (MOA) variant C215A/H257A (enzyme)
chain: MSLRRGIYHIENAGVPSAIDLKDGSSSDGTPIVGWQFTPDTINWHQLWLAEPIPNVADTFTLCNLFSGTYMDLYNGSSEAGTAVNGWQGTAFTTNPHQLWTIKKSSDGTSYKIQNYGSKTFVDLVNGDSSDGAKIAGWTGTWDEGNPHQKWYFNRMSVSSAEAQAAIARNPHIHGTYRGYILDGEYLVLPNATFTQIWKDSGLPGSKWREQIYDADDFAIAMKAAVGKWGADSWKANGFAIFCGVMLGVNKAGDAAAAYNFTLTKDHADIVFFEPQNGGYLNDIGYDSYMAFY
notes: Marasmius oreades agglutinin (MOA), from the cDNA for wild-type MOA in vector MOApT7-LO; the final model holds residues 2-293, no density for the first methionine; also called MOA C215A/H257A; MOA-C215A/H257A
On to B2, for which the binding result is reported as “binds”.
